In the supplement of paper PMC9112550, “Optimization of the antimicrobial peptide Bac7 by deep mutational scanning” (BMC Biology, 2022):

system: Escherichia coli TOP10; assay: shrunken log2 fold change of peptide-encoding DNA abundance (4.5 h post-induction vs induction); higher = less antimicrobial activity (less host growth inhibition); settings: time post-induction: 4.5 h; library: site-saturation at positions 5, 18, 19, 20
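Note: peptides expressed intracellularly from a pBAD plasmid library in pooled LB shake-flask culture, induced with 0.3% L-arabinose, DNA abundance read by NGS, three biological replicates, DESeq2 with apeglm shrinkage.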

| Sequence | shrunken log2 fold change |
| --- | --- |
| RRIRTRPPRLPRPRPRPKFPPRP | -0.0959 |
| RRIRTRPPRLPRPRPRPKFSPRP | -0.189 |
| RRIRTRPPRLPRPRPRPKHMPRP | -0.081 |
| RRIRTRPPRLPRPRPRPKKCPRP | -0.0193 |
| RRIRTRPPRLPRPRPRPKKDPRP | -0.147 |
| RRIRTRPPRLPRPRPRPKMEPRP | -0.0203 |
| RRIRTRPPRLPRPRPRPKMRPRP | 0.0419 |
| RRIRTRPPRLPRPRPRPKPHPRP | 0.0899 |
| RRIRTRPPRLPRPRPRPKQKPRP | -0.203 |
| RRIRTRPPRLPRPRPRPKSLPRP | -0.291 |
| RRIRTRPPRLPRPRPRPKSTPRP | 0.0437 |
| RRIRTRPPRLPRPRPRPKSVPRP | -0.0225 |
| RRIRTRPPRLPRPRPRPKWHPRP | -0.0752 |
| RRIRTRPPRLPRPRPRPKWKPRP | -0.0786 |
| RRIRTRPPRLPRPRPRPKWRPRP | 0.394 |
| RRIRTRPPRLPRPRPRPKYHPRP | -0.243 |
| RRIRTRPPRLPRPRPRPLAYPRP | -0.982 |
| RRIRTRPPRLPRPRPRPLCAPRP | 0.0615 |
| RRIRTRPPRLPRPRPRPLCDPRP | -0.714 |
| RRIRTRPPRLPRPRPRPLCHPRP | -0.175 |
| RRIRTRPPRLPRPRPRPLECPRP | -0.0489 |
| RRIRTRPPRLPRPRPRPLEHPRP | 0.104 |

| Sequence | shrunken log2 fold change |
| --- | --- |
| RRIRTRPPRLPRPRPRPLEIPRP | 0.554 |
| RRIRTRPPRLPRPRPRPLESPRP | -0.0663 |
| RRIRTRPPRLPRPRPRPLEWPRP | 0.178 |
| RRIRTRPPRLPRPRPRPLGCPRP | 0.0809 |
| RRIRTRPPRLPRPRPRPLGLPRP | 0.207 |
| RRIRTRPPRLPRPRPRPLGSPRP | 0.0751 |
| RRIRTRPPRLPRPRPRPLGTPRP | -0.145 |
| RRIRTRPPRLPRPRPRPLHHPRP | -0.494 |
| RRIRTRPPRLPRPRPRPLHYPRP | -0.592 |
| RRIRTRPPRLPRPRPRPLIVPRP | -0.438 |
| RRIRTRPPRLPRPRPRPLKNPRP | -0.397 |
| RRIRTRPPRLPRPRPRPLKRPRP | -0.236 |
| RRIRTRPPRLPRPRPRPLLFPRP | -0.181 |
| RRIRTRPPRLPRPRPRPLMEPRP | 0.0859 |
| RRIRTRPPRLPRPRPRPLMMPRP | -0.314 |
| RRIRTRPPRLPRPRPRPLMTPRP | 0.0717 |
| RRIRTRPPRLPRPRPRPLNAPRP | -0.264 |
| RRIRTRPPRLPRPRPRPLPCPRP | 0.0112 |
| RRIRTRPPRLPRPRPRPLQEPRP | 0.0814 |
| RRIRTRPPRLPRPRPRPLQGPRP | 0.12 |
| RRIRTRPPRLPRPRPRPLQPPRP | 0.161 |
| RRIRTRPPRLPRPRPRPLQTPRP | -0.00743 |

| Sequence | shrunken log2 fold change |
| --- | --- |
| RRIRTRPPRLPRPRPRPLRYPRP | -0.255 |
| RRIRTRPPRLPRPRPRPLTLPRP | -0.241 |
| RRIRTRPPRLPRPRPRPLTWPRP | -0.174 |
| RRIRTRPPRLPRPRPRPLWAPRP | 0.277 |
| RRIRTRPPRLPRPRPRPLWRPRP | 0.00366 |
| RRIRTRPPRLPRPRPRPLYGPRP | 0.0411 |
| RRIRTRPPRLPRPRPRPLYNPRP | -0.715 |
| RRIRTRPPRLPRPRPRPLYPPRP | -0.154 |
| RRIRTRPPRLPRPRPRPMAIPRP | -0.00284 |
| RRIRTRPPRLPRPRPRPMCDPRP | 0.0157 |
| RRIRTRPPRLPRPRPRPMCEPRP | 0.0422 |
| RRIRTRPPRLPRPRPRPMCNPRP | -0.249 |
| RRIRTRPPRLPRPRPRPMCPPRP | -0.017 |
| RRIRTRPPRLPRPRPRPMDHPRP | -0.31 |
| RRIRTRPPRLPRPRPRPMDSPRP | -0.0716 |
| RRIRTRPPRLPRPRPRPMDTPRP | 0.0257 |
| RRIRTRPPRLPRPRPRPMDVPRP | -0.303 |
| RRIRTRPPRLPRPRPRPMEEPRP | -0.25 |
| RRIRTRPPRLPRPRPRPMFNPRP | -0.643 |
| RRIRTRPPRLPRPRPRPMGQPRP | 0.103 |
| RRIRTRPPRLPRPRPRPMHCPRP | -0.235 |
| RRIRTRPPRLPRPRPRPMHKPRP | -0.271 |

| Sequence | shrunken log2 fold change |
| --- | --- |
| RRIRTRPPRLPRPRPRPMHNPRP | -0.503 |
| RRIRTRPPRLPRPRPRPMHPPRP | 0.0402 |
| RRIRTRPPRLPRPRPRPMHRPRP | -0.142 |
| RRIRTRPPRLPRPRPRPMHVPRP | -0.0197 |
| RRIRTRPPRLPRPRPRPMIIPRP | -0.0854 |
| RRIRTRPPRLPRPRPRPMLPPRP | -0.0543 |
| RRIRTRPPRLPRPRPRPMMIPRP | 0.000458 |
| RRIRTRPPRLPRPRPRPMMTPRP | 0.0356 |
| RRIRTRPPRLPRPRPRPMNNPRP | -0.582 |
| RRIRTRPPRLPRPRPRPMQCPRP | -0.00968 |
| RRIRTRPPRLPRPRPRPMQWPRP | 0.0688 |
| RRIRTRPPRLPRPRPRPMRGPRP | -0.0594 |
| RRIRTRPPRLPRPRPRPMRMPRP | 0.162 |
| RRIRTRPPRLPRPRPRPMSEPRP | -0.00136 |
| RRIRTRPPRLPRPRPRPMSLPRP | -0.147 |
| RRIRTRPPRLPRPRPRPMTGPRP | 0.17 |
| RRIRTRPPRLPRPRPRPMVPPRP | -0.0651 |
| RRIRTRPPRLPRPRPRPMVRPRP | -0.0017 |
| RRIRTRPPRLPRPRPRPNCFPRP | -0.0362 |
| RRIRTRPPRLPRPRPRPNDNPRP | -0.739 |
| RRIRTRPPRLPRPRPRPNDWPRP | -0.385 |
| RRIRTRPPRLPRPRPRPNEKPRP | -0.144 |

| Sequence | shrunken log2 fold change |
| --- | --- |
| RRIRTRPPRLPRPRPRPNEQPRP | -0.0135 |
| RRIRTRPPRLPRPRPRPNETPRP | 0.0139 |
| RRIRTRPPRLPRPRPRPNFNPRP | -0.356 |
| RRIRTRPPRLPRPRPRPNFSPRP | 0.059 |
| RRIRTRPPRLPRPRPRPNIIPRP | -1.01 |
| RRIRTRPPRLPRPRPRPNIKPRP | -0.828 |
| RRIRTRPPRLPRPRPRPNKDPRP | -0.54 |
| RRIRTRPPRLPRPRPRPNKNPRP | -0.156 |
| RRIRTRPPRLPRPRPRPNKTPRP | -0.0171 |
| RRIRTRPPRLPRPRPRPNLPPRP | 0.0474 |
| RRIRTRPPRLPRPRPRPNPDPRP | -0.0402 |
| RRIRTRPPRLPRPRPRPNPHPRP | -0.177 |
| RRIRTRPPRLPRPRPRPNQAPRP | 0.00454 |
| RRIRTRPPRLPRPRPRPNTCPRP | -0.395 |
| RRIRTRPPRLPRPRPRPNTFPRP | -0.668 |
| RRIRTRPPRLPRPRPRPNTWPRP | -0.178 |
| RRIRTRPPRLPRPRPRPNVWPRP | 0.0477 |
| RRIRTRPPRLPRPRPRPNYFPRP | -0.062 |
| RRIRTRPPRLPRPRPRPPALPRP | 0.311 |
| RRIRTRPPRLPRPRPRPPANPRP | 0.0303 |
| RRIRTRPPRLPRPRPRPPCKPRP | -0.193 |
